Data published in patent US20230061973A1 (LARIMAR THERAPEUTICS, published 2023).
Substitutions are numbered along the chain they refer to.

T1: exemplary TAT frataxin fusion molecule (HIV-1, UniProt Q16595 1-210)
T1 construct: in the bridging assays biotinylated and sulfotagged forms were used; also called TAT-FXN fusion molecule; TAT FXN fusion molecule
T1 sequence: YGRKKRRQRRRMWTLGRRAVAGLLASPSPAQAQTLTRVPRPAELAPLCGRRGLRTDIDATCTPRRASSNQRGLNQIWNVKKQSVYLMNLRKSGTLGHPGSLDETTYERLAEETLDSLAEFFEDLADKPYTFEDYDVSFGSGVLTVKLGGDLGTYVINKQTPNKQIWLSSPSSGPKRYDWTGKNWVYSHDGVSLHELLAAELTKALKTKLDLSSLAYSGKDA

B1: antibody 10-9 (antibody, V domains shown)
VH: QSLEESGGDLVKPGASLTLTCTASGFSFSSGYWICWVRQAPGKGLEWIACIYTGDGDTSYASWAKGRFTISKTSSTTVTLQMTSLTVADTAIYFCARDTSGTFYYNLWGPGTLVAVSS
VL: AAVLTQTPSSVSAAVGGTVTISCQSSESVYKTNYLSWFQKKPGQPPKLLIYDASTLASGVPSRFSGSGSGTQFTLTISDLECDDAATYYCAGGYSDDINAFGGGTEVEIK
notes: Rabbit monoclonal
B2: antibody 10-1 (antibody, V domains shown)
VH: B1 VH
VL: B1 VL with A1E, A2L, P8A, E108V, I109V
notes: Rabbit monoclonal
B3: antibody 10-12 (antibody, V domains shown)
VH: B1 VH
VL: B1 VL with A1E, A2L, P8A, E108V, I109V
notes: Rabbit monoclonal
B4: antibody 12-1 (antibody, V domains shown)
VH: B1 VH
VL: DVVMTQTPSPVSAPVGGTVTINCQASQNIYSNLAWYQQKPGQPPKLLIYGASTLASGVSSRFKGSRSGTEFTLTISDLECADAATYYCQSYVYSSSTADTFGGGTKVVVE
notes: Rabbit monoclonal

Key:
[1] = molecular target: exemplary TAT frataxin fusion molecule (HIV-1) (UniProt Q16595); assay: PK sandwich ELISA in human plasma, antibody as capture, HRP anti-frataxin mAb detection
[2] = molecular target: exemplary TAT frataxin fusion molecule (HIV-1) (UniProt Q16595); assay: immunopurification from plasma on antibody-coated magnetic beads, trypsin digest, LC/MS of peptide …
[3] = molecular target: exemplary TAT frataxin fusion molecule (HIV-1) (UniProt Q16595); assay: bridging (ADA) assay in human plasma: antibody titrated with biotinylated and sulfo-tagged TAT frataxin fusion molecule, streptavidin plate, ECL read-out
[4] = molecular target: T1, exemplary TAT frataxin fusion molecule; assay: PK sandwich ELISA in human plasma, antibody as capture, HRP anti-frataxin mAb detection

Molecule	Mean OD at plasma conc. 0.400 ng/mL [4] [OD]	Mean OD at plasma conc. 0.800 ng/mL [4] [OD]	Mean OD at plasma conc. 1.60 ng/mL [4] [OD]	Mean OD at plasma conc. 3.20 ng/mL [4] [OD]	Mean OD at plasma conc. 6.40 ng/mL [4] [OD]	Mean OD at plasma conc. 12.8 ng/mL [4] [OD]	Mean OD at plasma conc. 25.6 ng/mL [4] [OD]	Mean OD at plasma conc. 51.2 ng/mL [4] [OD]	S/N at plasma conc. 0.400 ng/mL [4]	S/N at plasma conc. 0.800 ng/mL [4]	S/N at plasma conc. 1.60 ng/mL [4]	S/N at plasma conc. 3.20 ng/mL [4]	S/N at plasma conc. 6.40 ng/mL [4]	S/N at plasma conc. 12.8 ng/mL [4]	S/N at plasma conc. 25.6 ng/mL [4]	S/N at plasma conc. 51.2 ng/mL [4]	also measured
polyclonal anti-TAT E8332 polyclonal antibody																	Mean OD at plasma conc. 0.400 ng/mL [1]: 0.075 OD; Mean OD at plasma conc. 0.800 ng/mL [1]: 0.113 OD; Mean OD at plasma conc. 1.60 ng/mL [1]: 0.165 OD; Mean OD at plasma conc. 3.20 ng/mL [1]: 0.322 OD; Mean OD at plasma conc. 6.40 ng/mL [1]: 0.631 OD; Mean OD at plasma conc. 12.8 ng/mL [1]: 1.08 OD; Mean OD at plasma conc. 25.6 ng/mL [1]: 1.83 OD; Mean OD at plasma conc. 51.2 ng/mL [1]: 3.1 OD; S/N at plasma conc. 0.400 ng/mL [1]: 1.5; S/N at plasma conc. 0.800 ng/mL [1]: 2.3; S/N at plasma conc. 1.60 ng/mL [1]: 3.4; S/N at plasma conc. 3.20 ng/mL [1]: 6.6; S/N at plasma conc. 6.40 ng/mL [1]: 12.9; S/N at plasma conc. 12.8 ng/mL [1]: 22.1; S/N at plasma conc. 25.6 ng/mL [1]: 37.3; S/N at plasma conc. 51.2 ng/mL [1]: 63.3; LC/MS signal after immunopurification, fold higher than with anti-TAT antibody ab63957 [2]: 5 fold higher; EC50 (read off the curve) [3]: 20 µg/mL
B1	0.077	0.1	0.14	0.229	0.437	0.781	1.49	2.77	1.6	2.1	3	4.9	9.3	16.6	31.7	59	
B2	0.07	0.093	0.14	0.228	0.43		1.44	2.66	1.5	2	3	5	9.3	17.1	31.3	57.7	
B3	0.073	0.092	0.136	0.23	0.417	0.778	1.4	2.7	1.6	2	3	5.1	9.3	17.3	31.2	60	
B4	0.067	0.088	0.137	0.229	0.433	0.795	1.44	2.67	1.4	1.9	2.9	4.9	9.2	16.9	30.7	56.8	
